± gives the standard deviation.
Assay: protein stability index of a GFP-peptide fusion (GPS, HEK-293T) (PSI 1-6); higher = more stable
Details: c terminus: a fixed tail appended
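Note: 24-mer peptide tiles fused after GFP, lentivirally expressed, FACS-sorted into six equal bins by GFP/DsRed ratio, decoded by Illumina sequencing, PSI is the read-weighted mean bin number.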

| Sequence | protein stability index (treatment: DMSO) | protein stability index (treatment: MLN4924 1 uM, 8 h) |
| --- | --- | --- |
| NVTNLEGGPGRQTTSPNVLWPTPG [ESR2] | 3.17 ± 0.35 | 3.17 ± 0.37 |
| NWGNGKRPNLETYYERVLKRKTFN [GDAP1] | 2.57 ± 0.12 | 2.79 ± 0.52 |
| PAICALRHLTSRHQEAEMAQNAVR [CTNNB1] | 3.2 ± 0.5 | 3.67 ± 0.32 |
| PAPASSTPQEPWPGPTAPSPTSRP [PDLIM7] | 5.07 ± 0.093 | 5.13 ± 0.22 |
| PASGASSIKPEASQMPPPAGGTSD [SCNN1D] | 5.43 ± 0.14 | 5.45 ± 0.19 |
| PDLESGSESGADTISVNQTRVNLS [DLC1] | 5.12 ± 0.26 | 5.16 ± 0.2 |
| PDLLPTDYRKQLQYPNPLPVLSGA [VPS39] | 3.34 ± 0.4 | 3.43 ± 0.14 |
| PDPLNICVFILLLVFIVVKCFTSE [RTP4] | 2.97 ± 1.2 | 2.72 ± 0.81 |
| PDRASGPEGSLSQTMAGSSPNTPQ [FAM104A] | 5.3 ± 0.21 | 5.34 ± 0.2 |
| PEEKKEEEGSANRRPEDQELESLS [CHGA] | 5.58 ± 0.34 | 5.71 ± 0.12 |
| PEGGMEQALAGASSGRELGRPKEL [ZNF263] | 4.92 ± 0.11 | 5.29 ± 0.17 |
| PESADTGDKSESPDEANVGKHPKD [TOR1AIP2] | 5.57 ± 0.14 | 5.601 ± 0.053 |
| PETLPESSLFSVEANSSNSQKNEK [C8orf76] | 5.54 ± 0.14 | 5.41 ± 0.4 |
| PETVMTTLYTAKKYAVPALEAHCV [BTBD1] | 2.7 ± 0.13 | 2.83 ± 0.15 |
| PEVVQHEEFILLSQGEVEKLIKCD [KLHL12] | 3.99 ± 0.4 | 3.86 ± 0.75 |
| PFLLLFLGNFFTTLRVVHHKFHSQ [TMEM120A] | 3.28 ± 0.37 | 3.1 ± 0.22 |
| PGESLECPAELRPQVPQPPSPAAV [TRAF3IP2] | 5.31 ± 0.077 | 5.18 ± 0.43 |
| PGKLFIGGLNRETNEKMLKAVFGK [RBMY1A1] | 2.69 ± 0.12 | 2.86 ± 0.14 |
| PGLGQESKAPGSCDPGTDPCPEDA [TLE6] | 5.65 ± 0.27 | 5.55 ± 0.22 |
| PGSGPGHGSGSHPGPASGPGPDTG [SPAG8] | 5.36 ± 0.16 | 5.34 ± 0.069 |
| PHAPPFAGGHPAQLGLGRGASTFK [JUNB] | 4.11 ± 0.083 | 4.34 ± 0.066 |
| PIGILTTSYCELLQNKVPLLGSST [PPTC7] | 2.63 ± 0.53 | 2.66 ± 0.47 |
| PKPADFRNPGPGRHRLITQVYLSH [INTS4] | 2.59 ± 0.17 | 2.57 ± 0.24 |

| Sequence | protein stability index (treatment: DMSO) | protein stability index (treatment: MLN4924 1 uM, 8 h) |
| --- | --- | --- |
| PKRLRCWEEEEDHEKERPEHKSLE [FANCE] | 5.32 ± 0.17 | 5.37 ± 0.33 |
| PKSLVRLSLEAVICFKEMLANSWN [KLHDC2] | 2.41 ± 0.65 | 2.49 ± 0.3 |
| PLELMRTKLQAQHVSYRELGACVR [SLC25A39] | 2.67 ± 0.24 | 2.92 ± 0.16 |
| PLKLHYQLRNVRERLAKNLVEKGV [GOLPH3] | 2.4 ± 0.15 | 2.7 ± 0.3 |
| PLLLFTYLNSFLHQRIPQSVRILG [SLC29A1] | 2.96 ± 0.54 | 2.97 ± 0.54 |
| PLPGKAFLRQLPFRGDDGIFDDNF [SNX3] | 3.47 ± 0.23 | 3.41 ± 0.47 |
| PNTYYEGGYFKARLKFPIDYPYSP [CDC34] | 2.32 ± 0.17 | 2.39 ± 0.21 |
| PNVIEYYENFLEDKALMIAMEYAP [NEK8] | 2.32 ± 0.21 | 2.25 ± 0.21 |
| PPGGSGSEPYKLLPGAVATIVKPL [HNF4A] | 3.59 ± 0.11 | 3.58 ± 0.18 |
| PPPPPNEINPPPHTMEEEEDDDWG [EIF5] | 5.48 ± 0.17 | 5.61 ± 0.22 |
| PPRIPQADQWKSSNKSLVEALGLE [RHOBTB1] | 4.45 ± 0.27 | 4.33 ± 0.26 |
| PPSSGNGPAPPPLPPALVPAGGLA [WAS] | 4.66 ± 0.47 | 4.67 ± 0.29 |
| PPVWYLKEEDHYQRARKEREKEDY [RHOBTB2] | 5.16 ± 0.12 | 5.22 ± 0.16 |
| PRASISHVTCVDQSEHTMVLRCQL [C2CD2L] | 2.34 ± 0.26 | 2.26 ± 0.28 |
| PRIWSLAHTATASAVEGAPPARPR [IRX6] | 4.44 ± 0.26 | 4.43 ± 0.11 |
| PRPRRAKRFASLSRFVETLVVADD [ADAMTS4] | 3.65 ± 0.45 | 3.69 ± 0.12 |
| PSGSLENGTKADGKDAKTTNGHGG [TRIM29] | 5.26 ± 0.45 | 5.58 ± 0.35 |
| PSRREPPPRRSRSRSHDRLPYQRR [CLK3] | 5.23 ± 0.19 | 5.23 ± 0.14 |
| PSSSGHLADSDTLSSAEENEPSQA [C18orf25] | 5.56 ± 0.22 | 5.52 ± 0.11 |
| PSVKYLSHPRVQSGCDKEALLTGG [RNF180] | 3.99 ± 0.28 | 4.04 ± 0.29 |
| PVPPGWNPNSSSGKGSGGNAGSYI [DLX1] | 3.86 ± 0.21 | 3.93 ± 0.24 |
| PYFRAMFTGELAESRQTEVVIRDI [KLHL20] | 2.77 ± 0.25 | 3.09 ± 0.19 |
| PYKREEEALEERRLSRGEIPTLQR [PKD2L1] | 4.76 ± 0.31 | 4.82 ± 0.27 |

| Sequence | protein stability index (treatment: DMSO) | protein stability index (treatment: MLN4924 1 uM, 8 h) |
| --- | --- | --- |
| QAAVAAGDVHTVRKMLEQGYSPNG [ASB7] | 4.09 ± 0.31 | 4.11 ± 0.12 |
| QALRENTYPFLAMIMLKDRRMTVV [FAF2] | 2.23 ± 0.31 | 1.96 ± 0.21 |
| QAPPADFIPAHVAFDKKVLKFDAY [EFHC1] | 3.01 ± 0.38 | 2.98 ± 0.28 |
| QDAPLSDCTETIEGLELTEQTFSP [ADD1] | 5.46 ± 0.21 | 5.3 ± 0.23 |
| QDDHDHKVQELMSTHELEKKELEE [MTUS2] | 5.59 ± 0.29 | 5.59 ± 0.33 |
| QDLCCRTIVSCTPVHLVDKLPLPS [RAB40A] | 2.34 ± 0.26 | 2.39 ± 0.35 |
| QDTELPKAEECDTITLNCPRNSDM [EDARADD] | 5.32 ± 0.29 | 5.42 ± 0.27 |
| QEGAASKVLGRLRALSDTTEELTV [SLC2A12] | 4.46 ± 0.31 | 4.65 ± 0.37 |
| QEGWIHHLARHAVACFLTRGDLWI [CRY1] | 3.05 ± 0.48 | 2.89 ± 0.44 |
| QEVTEPAVVAVDRQAIFPDTWTLT [PXN] | 4.06 ± 0.23 | 3.8 ± 0.36 |
| QFLKELLLKPHSYGRFIRWLNKEK [SPDEF] | 2.28 ± 0.43 | 2.21 ± 0.25 |
| QFTKPNASLGDVQSGATISMPCST [SASS6] | 4.14 ± 0.38 | 4.06 ± 0.69 |
| QGASESQAPGEENLLGEAAGGQDM [HDAC6] | 5.54 ± 0.22 | 5.45 ± 0.2 |
| QGHPPSLFPPKAKSNQPKSLEDLI [ATE1] | 4.25 ± 0.081 | 4.19 ± 0.16 |
| QGTAEEDHVDLSLSCTLVPRSGEQ [CDKN1A] | 5.19 ± 0.12 | 5.2 ± 0.28 |
| QHTPDQANSDRASIGRRRTELRRS [PLEKHN1] | 4.95 ± 0.38 | 5.34 ± 0.19 |
| QIAQLEASLAAAKKQLADETLLKV [LMNB1] | 2.72 ± 0.65 | 2.8 ± 0.46 |
| QIHLDVDNDRTTPSDLDSTGNSLN [DLC1] | 5.19 ± 0.25 | 5.28 ± 0.18 |
| QKAPMTTVRGLHCMCTVGERLYVI [KLHL13] | 3.21 ± 0.61 | 2.75 ± 0.52 |
| QKDSYQPPGNVYWPLRGKREAMLE [SPAG8] | 3.58 ± 0.31 | 3.62 ± 0.41 |
| QKLADLRSLNEEHSKQYRCLSFQP [VDR] | 3.07 ± 0.12 | 3.24 ± 0.17 |
| QLFEDPTVDKEVEIRKKVLKIYNK [MNAT1] | 3.41 ± 0.18 | 3.5 ± 0.29 |
| QLIVTARTTRGLDPLFGMCEKFLQ [INTS4] | 2.15 ± 0.4 | 2.06 ± 0.3 |

| Sequence | protein stability index (treatment: DMSO) | protein stability index (treatment: MLN4924 1 uM, 8 h) |
| --- | --- | --- |
| QLLLHNTVIFYGADSEQADIARML [ZMYND11] | 2.28 ± 0.089 | 2.3 ± 0.13 |
| QLQHDFPRALIFSTDDFFFREDGA [N4BP2L1] | 3.09 ± 0.24 | 3.08 ± 0.47 |
| QLRGQLQDLDSRLRAGSSEFDSEH [RASAL3] | 4.71 ± 0.41 | 4.9 ± 0.46 |
| QPMQNGEEDRPLGGGEGHQPAGNR [BEX3] | 5.42 ± 0.4 | 5.36 ± 0.35 |
| QPPVPSLSEVKPPPPPPPAQTFLF [TRADD] | 3.41 ± 0.49 | 3.44 ± 0.12 |
| QPRKKYVQRKSDFDQTVFQEVFEP [NETO1] | 4.14 ± 0.22 | 4.26 ± 0.2 |
| QPVPNTTEPDYKSKDWVFLNYTYK [STK38L] | 3.33 ± 0.63 | 3.14 ± 0.31 |
| QQPPQQQPSQQQQPPPQEEPGTPS [KLHL14] | 5.67 ± 0.13 | 5.61 ± 0.4 |
| QRDEQLRALQERLGQQQRDMRRDE [FBF1] | 5.39 ± 0.28 | 5.33 ± 0.31 |
| QREEVEERMWAAIQSWDINSRRNI [ZER1] | 3.75 ± 0.36 | 3.69 ± 0.29 |
| QSEESDQGKYECVATNSAGTRYSA [PTPRD] | 5.23 ± 0.33 | 5.23 ± 0.34 |
| QSLYQEVFGRLRDENGRPYSPSQY [NFE2L1] | 3.59 ± 0.31 | 3.4 ± 0.18 |
| QSSQRMRQNLKLLVEETSCQQNMI [CEP70] | 3.65 ± 0.16 | 3.66 ± 0.16 |
| QTLQAMDSEDFPQAAKQIKDGVTM [FSD1] | 4.97 ± 0.26 | 5.04 ± 0.083 |
| QVAFGSLYRDDVLIKPSRVVAILA [GMCL1] | 2.38 ± 0.62 | 2.46 ± 0.48 |
| QVLKKIAQKALDLPSSGEGLAFFT [HMOX1] | 2.57 ± 0.7 | 2.02 ± 0.41 |
| QVTAPGAPPLQAETPGSAVDYPLH [TNXB] | 4.45 ± 0.087 | 5.292 ± 0.007 |
| QYREAAGPHEAFNKLWELCCQWLK [ZNF449] | 2.93 ± 0.53 | 3.05 ± 1 |
| QYRWDMMHRLGEPQARMREENMER [BEX1] | 4.1 ± 0.37 | 4.23 ± 0.16 |
| RAALKLEPSNKTIHAELSKLVKKH [FKBP8] | 3.71 ± 0.19 | 3.85 ± 0.12 |

From the supplement of paper PMC10567573
